T1: hFc tagged human LAG3 ECD recombinant protein (human, UniProt P18627 23-450)
T1 construct: range 23-450; also called biotin labelled hFc tagged human LAG3 ECD; not shown: human IgG Fc tag
T1 sequence (looked up): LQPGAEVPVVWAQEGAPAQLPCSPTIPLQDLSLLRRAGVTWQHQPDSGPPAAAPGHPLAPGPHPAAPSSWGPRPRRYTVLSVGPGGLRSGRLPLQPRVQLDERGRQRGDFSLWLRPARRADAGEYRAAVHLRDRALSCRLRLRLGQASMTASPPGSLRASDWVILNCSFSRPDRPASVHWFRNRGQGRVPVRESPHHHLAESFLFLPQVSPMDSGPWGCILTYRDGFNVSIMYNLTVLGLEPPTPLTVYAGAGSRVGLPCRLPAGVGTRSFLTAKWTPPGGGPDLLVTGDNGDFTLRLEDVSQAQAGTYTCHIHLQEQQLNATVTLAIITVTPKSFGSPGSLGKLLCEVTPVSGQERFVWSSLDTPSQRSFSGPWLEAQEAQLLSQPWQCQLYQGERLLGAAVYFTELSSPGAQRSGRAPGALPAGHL

T2: human LAG3, full length, stably expressed on cells (human, UniProt P18627 23-525)
T2 construct: whole, on cells; also called CHOK1-human LAG3
T2 sequence (looked up): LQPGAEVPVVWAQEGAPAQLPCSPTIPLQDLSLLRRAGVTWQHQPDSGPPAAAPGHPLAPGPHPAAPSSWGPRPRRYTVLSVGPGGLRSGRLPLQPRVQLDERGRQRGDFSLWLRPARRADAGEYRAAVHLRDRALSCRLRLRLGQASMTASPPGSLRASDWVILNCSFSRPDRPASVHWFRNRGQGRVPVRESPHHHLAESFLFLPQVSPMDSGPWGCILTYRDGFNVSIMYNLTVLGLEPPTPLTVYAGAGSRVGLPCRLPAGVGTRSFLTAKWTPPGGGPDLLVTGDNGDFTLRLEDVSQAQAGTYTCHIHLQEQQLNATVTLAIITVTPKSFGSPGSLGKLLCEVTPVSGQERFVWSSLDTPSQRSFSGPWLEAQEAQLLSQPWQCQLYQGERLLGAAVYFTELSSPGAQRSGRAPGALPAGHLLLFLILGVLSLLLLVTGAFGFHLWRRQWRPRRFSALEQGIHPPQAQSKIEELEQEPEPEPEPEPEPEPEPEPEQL

T3: hFc tagged human LAG3 D1-D2 recombinant protein (human, UniProt P18627 23-261)
T3 construct: range 23-261; generated by Chempartner; also called hLAG3 D1-D2; not shown: human IgG Fc tag
T3 sequence (looked up): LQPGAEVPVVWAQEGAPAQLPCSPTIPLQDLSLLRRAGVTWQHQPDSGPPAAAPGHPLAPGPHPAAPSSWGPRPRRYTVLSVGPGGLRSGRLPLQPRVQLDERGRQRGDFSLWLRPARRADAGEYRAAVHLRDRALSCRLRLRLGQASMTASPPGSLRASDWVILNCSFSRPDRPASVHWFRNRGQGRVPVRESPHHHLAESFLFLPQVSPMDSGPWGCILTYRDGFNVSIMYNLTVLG

T4: mouse LAG3, full length, stably expressed on CHOK1 cells (mouse, UniProt Q61790 24-521)
T4 construct: whole, on cells
T4 sequence (looked up): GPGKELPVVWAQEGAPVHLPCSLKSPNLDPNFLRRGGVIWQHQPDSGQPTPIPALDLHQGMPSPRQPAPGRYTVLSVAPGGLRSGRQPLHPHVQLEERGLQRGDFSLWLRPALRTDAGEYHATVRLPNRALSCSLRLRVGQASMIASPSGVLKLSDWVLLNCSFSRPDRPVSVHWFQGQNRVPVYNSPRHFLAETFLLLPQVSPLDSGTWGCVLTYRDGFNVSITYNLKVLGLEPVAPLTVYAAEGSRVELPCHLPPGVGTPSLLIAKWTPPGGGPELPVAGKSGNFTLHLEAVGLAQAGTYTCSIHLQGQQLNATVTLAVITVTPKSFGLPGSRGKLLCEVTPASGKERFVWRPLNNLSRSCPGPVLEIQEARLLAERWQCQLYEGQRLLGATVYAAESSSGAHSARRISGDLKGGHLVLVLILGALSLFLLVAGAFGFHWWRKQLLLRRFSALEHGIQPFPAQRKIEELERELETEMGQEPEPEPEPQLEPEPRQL


What was measured:
[1] = molecular target: T1, hFc tagged human LAG3 ECD recombinant …; assay: competitive FACS: hFc-LAG3 ECD binding to Raji cells (MHC II)
Description: Competitive FACS assay was used to determine whether the purified hybridoma antibodies can block LAG3 and MHC II interaction. […] After washing, dye labeled anti-human Fc 2nd antibody (Sigma) was added and incubated at 37° C. for 1 hour. Fluorescence intensity was detected.

[2] = molecular target: T2, human LAG3, full length, stably …; assay: FACS on 293F-human LAG3 cells
Description: (§1) Briefly the antibodies were incubated with 2×10⁵ target cells at 4° C. for 1 hour. After washing, fluorescence labeled anti-mouse IgG 2nd antibody (Life Technologies) was added and incubated at 4° C. for 1 hour. Geometric median fluorescence intensity (MFI) was detected and EC₅₀ was calculated using GraphPad Prism9.0.

[3] = molecular target: T1, hFc tagged human LAG3 ECD recombinant …; assay: competitive ELISA: excess competitor, biotin hFc-LAG3 ECD, coated BMS-986016
Description: (§2) Competitive ELISA assay was used for epitope binning of the purified hybridoma antibodies. […] After washing, HRP labeled anti-streptavidin (SA) 2nd antibody (Sigma) was added and incubated at 37° C. for 1 hour. Then, 100 μl/well of TMB solution (Biotechnology) was added. After incubation for 15 minutes at room temperature, the reaction was stopped by the addition of 50 μl of 1N HCl. OD 450 nm was read. Competition ratio was calculated.

[4] = molecular target: T1, hFc tagged human LAG3 ECD recombinant …; assay: competitive ELISA: excess competitor, biotin hFc-LAG3 ECD, coated BAP-050
Description: as §2

[5] = molecular target: T5, cyno LAG3, full length, stably expressed on 293F cells (cyno); assay: FACS on 293F-cyno LAG3 cells, 20 nM antibody
T5 construct: whole, on cells
Description: as §1

[6] = molecular target: T3, hFc tagged human LAG3 D1-D2 recombinant …; assay: ELISA, coated hFc-hLAG3 D1-D2
Description: Binding activity of the purified hybridoma antibodies against human LAG3 was detected by ELISA assay using hFc tagged human LAG3 D1-D2 recombinant protein. Briefly the antibodies were incubated with ELISA microplate coated antigens at 37° C. for 1 hour. After washing, horseradish peroxidase (HRP) labeled anti-human IgG 2nd Ab (Sigma) was added and incubated at 37° C. for 1 hour. Then, 100 μl/well of TMB solution (Biotechnology) was added. After incubation for 15 minutes at room temperature, the reaction was stopped by the addition of 50 μl of 1N HCl. OD 450 nm was read and EC₅₀ was calculated using GraphPad Prism9.0.

[7] = molecular target: T4, mouse LAG3, full length, stably …; assay: FACS on CHOK1 cells expressing mouse LAG3
Description: as §1

IC50 [1] [nM] | TOP blocking (%) [1] [%] | EC50 [2] [nM] | % competition [3] [%] | % competition [4] [%] | MFI at 20 nM [5] [MFI] | EC50 [6] [nM] | binding result [7] | Binder
5.4 | 97.2 | 2.38 | 7.2 | 85.1 | 132 | 0.05 | no binding | Antibody 027 (antibody, V domains shown, mouse hybridoma antibody) VH: EVKILQSGGGLVQPGGSLKLSCAASGIDFSRYWMSWVRRTPGKGLEWIGEINPDSSTINYAPSLKDKFIISRDNAKNTLYLQMSKVRSEDTALYYCARLGIIPTYHYGSSGYYYAMDYWGQGTSVTVSS VL: DVLMTQTPLSLPVSLGDRASISCRSSQTIVHGNGHTSLEWYLQKPGQSPQLLIYKVSNRFSGVPDRFSASGSGTDFTLTISRVEAEDLGVYYCFQVSHVPYTFGGGTKLEIK
5 | 99.2 | 0.66 | 21.7 | 91.9 | 155 | 0.06 | no binding | Antibody 035 (antibody, V domains shown, mouse hybridoma antibody) VH: QVQLQQSGAELARPGASVKLSCKASGYSFTSYGINWVKQRTGQGLEWIGEIYPRSGNTYYNEKFKDKATLTADKSSSTAYMELRSLTSEDSAVYFCARGGTYDGYYYAMDFWGQGTSVTVSS VL: DIVLTQSPASLAVSLGQRATISCRASESVDNFGSSFLHWYQQKPGQAPKLLIYRASNLESGIPARFSGSGSRTDFTLTINPVETDDVATYYCQQVNKDPRTFGGGTKLEIK
5.1 | 87.6 | 1.04 | 29.3 | 87.7 | 83.4 | 0.02 | no binding | Antibody 057 (antibody, V domains shown, mouse hybridoma antibody) VH: QVQLQQSGAELARPGASVKLSCKASGFSFTSYGINWVKQRTGQGLEWIGEIYPRSGNTYYNEKLKGEATLTADRSSSTAYMELRSLTSEDSAVYFCARGGTYDGYYYAMDYWGQGTSVTVSS VL: NIVLTQSPASLAVSLGQRATISCRASESVDNFGSSFMHWYQQKPGQAPKLLIYRASNLESGIPARFGGSGSGTDFTLTIDPVETDDVATYYCQQVNKDPRTFGGGTKLEIK
7.7 | 82.7 | 1.14 | 8.9 | 87.4 | 129 | 0.04 | no binding | Antibody 047 (antibody, V domains shown, mouse hybridoma antibody) VH: QVQLQQSGAELARPGASVKLSCKASGYSFTSYGVNWVKQRTGQGLEWIGEIYPRSGNTYYNERFGDKATLTADKSSSTAYMEIRSLTSEDSAVYFCARGGTYDGYYYAMDYWGQGTSVTVSS VL: DIVLTQSPASLAVSLGQRATISCRASESVDNFGSSFMHWYQQKPGQAPKLLIYRASNLESGIPARFSGSGSRTDFTLTINPVETDDVATYYCQQVNKDPRTFGGGTKLEIK
5.5 | 81 | 2.04 | 73 | -0.5 | 154 | 0.05 | no binding | Antibody 024 (antibody, V domains shown, mouse hybridoma antibody) VH: EVQLQQSGPELVKPGASVKISCKASGYTFTDYYMNWVKQSHGKRLEWIGDIDPNNGGTSYNQKFKGKATLTVDKSSSSAYMDLRSLTSEDSAVYYCARAGSYYYGSSYVEYFDVWGTGTTVTVSS VL: DIQMTQSPASLSASVGETVTITCRASGNIHNYLAWYQQKQGASPQLLVYNAKTLADGVPSRFSGSGSGTEFSLKINSLQPEDFGNYYCQHFWNTPYTFGGGTKLEIK
4.8 | 98.8 | 2.33 | 92.5 | 3.8 | 83.4 | 0.07 | no binding | Antibody 033 (antibody, V domains shown, mouse hybridoma antibody) VH: EVQLQQSGAELVRPGASVKLSCTASDFNIKDDYIHWVKQRPEQGLEWIGWIDLENGDTEYASKFQGKATITADTSSNTAYLQLSSLTSEDTAVYYCTTKGSHWGQGTLVTVSA VL: DVVMTQIPLSLPVSLGDQASISCRSSQSLVYSNGNTYLNWYLQKPGQSPKLLIHKVSNRFSGVPDRFSGSGSGTDFTLKISRVEAEDLGVYFCSQSTHVPYTFGGGTKLEIR
4.9 | 84.2 | 2.65 | 43.7 | -2.7 | 125 | 0.05 | no binding | Antibody 023 (antibody, V domains shown, mouse hybridoma antibody) VH: QIQLVQSGPVLKKPGETVKISCKASGYTFTESPMNWVKQAPGRGFKWMGMIYTDTGEPTYAEEFKGRFAFSLETSASTAYLQINNLKSEDTATYFCVSDYGSILYWYFDVWGTGTTVTVSS VL: DIVMTQSHKFMSTSVGDRVSITCKASQDVSTAVAWYQQTPGQSPKLLIYSASYRYTGVPDRFTGSGSGTDFTFTISSVQAEDLAVYYCQQHYNSPPTFGAGTKLELK
4.6 | 90.7 | 4.58 | 20.3 | 23.5 | 35.6 | 0.06 | no binding | Antibody 029 (antibody, V domains shown, mouse hybridoma antibody) VH: DVKLVESGEDLVKPGGSLKLSCAASGFTFSSYAMSWVRQTPEKRLEWVAYVTSGGDYIYYADTVKGRFTISRDDVRNTLYLQMSSLKSEDTAMYYCTRVAYDYEWYFDVWGTGAPVTVSS VL: DIVMTQSHKFMSTSVGDRVSITCKASQDVTTAVAWYQQKPGQSPKLLIYSASYRYTGVSDRFTGSGSGTDFTFTISSVQAEDLALYYCQQHDSSPWTFGGGTKLEIK

— patent US20250313625A1 (ELPISCIENCE SUZHOU BIOPHARMA, published 2025)
